Reference: the supplement of paper PMC9112550, “Optimization of the antimicrobial peptide Bac7 by deep mutational scanning” (BMC Biology, 2022)

Test system: Escherichia coli TOP10
Assay: shrunken log2 fold change of peptide-encoding DNA abundance (4.5 h post-induction vs induction); higher = less antimicrobial activity (less host growth inhibition)
Settings: time post-induction: 4.5 h; library: site-saturation at positions 5, 18, 19, 20
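Also: peptides expressed intracellularly from a pBAD plasmid library in pooled LB shake-flask culture, induced with 0.3% L-arabinose, DNA abundance read by NGS, three biological replicates, DESeq2 with apeglm shrinkage.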

| Sequence | shrunken log2 fold change |
| --- | --- |
| RRIRLRPPRLPRPRPRPCRCPRP | 0.00318 |
| RRIRLRPPRLPRPRPRPSVYPRP | -0.584 |
| RRIRQRPPRLPRPRPRPVYEPRP | -0.0143 |
| RRIRWRPPRLPRPRPRPFKPPRP | -0.231 |
| RRIRKRPPRLPRPRPRPTGNPRP | 0.563 |
| RRIRARPPRLPRPRPRPGMMPRP | 0.207 |
| RRIRPRPPRLPRPRPRPWNVPRP | -0.052 |
| RRIRFRPPRLPRPRPRPGPRPRP | 0.618 |
| RRIRNRPPRLPRPRPRPAQGPRP | 0.279 |
| RRIRMRPPRLPRPRPRPANYPRP | -0.394 |
| RRIRWRPPRLPRPRPRPDYVPRP | -0.208 |
| RRIRGRPPRLPRPRPRPGAPPRP | 1.29 |
| RRIRPRPPRLPRPRPRPLHFPRP | -0.207 |
| RRIRQRPPRLPRPRPRPGEGPRP | 0.00168 |
| RRIRKRPPRLPRPRPRPIRWPRP | 0.0019 |
| RRIRRRPPRLPRPRPRPRSEPRP | 0.342 |
| RRIRWRPPRLPRPRPRPNYVPRP | -0.128 |
| RRIRVRPPRLPRPRPRPIQDPRP | -0.134 |
| RRIRRRPPRLPRPRPRPSQCPRP | 0.0735 |
| RRIRERPPRLPRPRPRPLDNPRP | -0.487 |
| RRIRCRPPRLPRPRPRPQRRPRP | -0.023 |
| RRIRVRPPRLPRPRPRPFMIPRP | -0.256 |
| RRIRCRPPRLPRPRPRPFMNPRP | -0.00951 |
| RRIRCRPPRLPRPRPRPWKIPRP | -0.268 |
| RRIRCRPPRLPRPRPRPNMNPRP | -0.88 |

| Sequence | shrunken log2 fold change |
| --- | --- |
| RRIRRRPPRLPRPRPRPYYMPRP | -0.408 |
| RRIRNRPPRLPRPRPRPEMGPRP | -0.0261 |
| RRIRARPPRLPRPRPRPNAMPRP | 0.272 |
| RRIRMRPPRLPRPRPRPVTGPRP | -0.00102 |
| RRIRWRPPRLPRPRPRPQRWPRP | 0.308 |
| RRIRNRPPRLPRPRPRPTRNPRP | 0.0941 |
| RRIRLRPPRLPRPRPRPQTFPRP | -0.118 |
| RRIRIRPPRLPRPRPRPMNNPRP | -0.465 |
| RRIRKRPPRLPRPRPRPCFPPRP | 0.123 |
| RRIRLRPPRLPRPRPRPLEFPRP | -0.252 |
| RRIRPRPPRLPRPRPRPKTYPRP | -0.451 |
| RRIRARPPRLPRPRPRPSHCPRP | -0.101 |
| RRIRSRPPRLPRPRPRPGFWPRP | 0.654 |
| RRIRHRPPRLPRPRPRPMWCPRP | -0.187 |
| RRIRKRPPRLPRPRPRPGMKPRP | 0.516 |
| RRIRKRPPRLPRPRPRPDTHPRP | 0.234 |
| RRIRHRPPRLPRPRPRPWRCPRP | -0.221 |
| RRIRPRPPRLPRPRPRPWMAPRP | -0.113 |
| RRIRIRPPRLPRPRPRPMFWPRP | -0.128 |
| RRIRERPPRLPRPRPRPWWDPRP | -0.0282 |
| RRIRKRPPRLPRPRPRPLTNPRP | -0.0294 |
| RRIRKRPPRLPRPRPRPDNWPRP | 0.235 |
| RRIRNRPPRLPRPRPRPGIVPRP | 0.367 |
| RRIRCRPPRLPRPRPRPEHCPRP | -0.0294 |
| RRIRKRPPRLPRPRPRPFMGPRP | 0.00448 |

| Sequence | shrunken log2 fold change |
| --- | --- |
| RRIRKRPPRLPRPRPRPNYAPRP | -0.0324 |
| RRIRTRPPRLPRPRPRPEDFPRP | -0.00101 |
| RRIRCRPPRLPRPRPRPDSGPRP | 0.0093 |
| RRIRTRPPRLPRPRPRPVRFPRP | 0.0687 |
| RRIRFRPPRLPRPRPRPNCYPRP | -0.435 |
| RRIRNRPPRLPRPRPRPSIIPRP | -0.856 |
| RRIRMRPPRLPRPRPRPYSTPRP | -0.137 |
| RRIRRRPPRLPRPRPRPAMVPRP | 0.00501 |
| RRIRNRPPRLPRPRPRPPSWPRP | 0.161 |
| RRIRERPPRLPRPRPRPHTHPRP | -1.01 |
| RRIRKRPPRLPRPRPRPNVPPRP | 0.11 |
| RRIRARPPRLPRPRPRPRMPPRP | 0.251 |
| RRIRMRPPRLPRPRPRPVLTPRP | 0.27 |
| RRIRDRPPRLPRPRPRPQIPPRP | -0.085 |
| RRIRQRPPRLPRPRPRPVYHPRP | -0.83 |
| RRIRLRPPRLPRPRPRPYQNPRP | -0.0985 |
| RRIRWRPPRLPRPRPRPKWPPRP | 0.477 |
| RRIRARPPRLPRPRPRPVWHPRP | 0.324 |
| RRIRMRPPRLPRPRPRPRKNPRP | 0.433 |
| RRIRARPPRLPRPRPRPGVKPRP | 0.0545 |
| RRIRCRPPRLPRPRPRPQHAPRP | -0.0229 |
| RRIRARPPRLPRPRPRPPYHPRP | -0.102 |
| RRIRNRPPRLPRPRPRPYLFPRP | -0.541 |
| RRIRDRPPRLPRPRPRPGWQPRP | 0.22 |
| RRIRLRPPRLPRPRPRPQHWPRP | -0.044 |

| Sequence | shrunken log2 fold change |
| --- | --- |
| RRIRQRPPRLPRPRPRPVCNPRP | -0.0714 |
| RRIRCRPPRLPRPRPRPTNMPRP | -0.47 |
| RRIRMRPPRLPRPRPRPISWPRP | 0.109 |
| RRIRPRPPRLPRPRPRPVAGPRP | 0.308 |
| RRIRARPPRLPRPRPRPQQMPRP | 0.12 |
| RRIRGRPPRLPRPRPRPVDIPRP | 0.183 |
| RRIRYRPPRLPRPRPRPGIEPRP | -0.276 |
| RRIRSRPPRLPRPRPRPFQHPRP | -0.0131 |
| RRIRFRPPRLPRPRPRPKIQPRP | -0.179 |
| RRIRSRPPRLPRPRPRPYWPPRP | -0.642 |
| RRIRCRPPRLPRPRPRPTPEPRP | 0.284 |
| RRIRSRPPRLPRPRPRPKWSPRP | -0.132 |
| RRIRNRPPRLPRPRPRPKESPRP | 0.149 |
| RRIRCRPPRLPRPRPRPIMCPRP | 0.0272 |
| RRIRPRPPRLPRPRPRPQVAPRP | -0.0363 |
| RRIRLRPPRLPRPRPRPMERPRP | -0.00192 |
| RRIRIRPPRLPRPRPRPVECPRP | 0.00902 |
| RRIRMRPPRLPRPRPRPCNVPRP | 0.0415 |
| RRIRWRPPRLPRPRPRPGMPPRP | 0.294 |
| RRIRFRPPRLPRPRPRPVRLPRP | 0.0919 |
| RRIRARPPRLPRPRPRPLDIPRP | 0.0659 |
| RRIRPRPPRLPRPRPRPRCIPRP | -0.2 |
| RRIRSRPPRLPRPRPRPKVIPRP | -0.0209 |
| RRIRCRPPRLPRPRPRPAAEPRP | 0.829 |
| RRIRVRPPRLPRPRPRPNYWPRP | -0.307 |

| Sequence | shrunken log2 fold change |
| --- | --- |
| RRIRVRPPRLPRPRPRPKCNPRP | -0.181 |
| RRIRARPPRLPRPRPRPGPCPRP | 0.251 |
| RRIRQRPPRLPRPRPRPMNGPRP | -0.0825 |
| RRIRRRPPRLPRPRPRPAWIPRP | 0.358 |
| RRIRGRPPRLPRPRPRPVQNPRP | 0.588 |
| RRIRWRPPRLPRPRPRPCIQPRP | -0.394 |
| RRIRSRPPRLPRPRPRPEQNPRP | 0.274 |
| RRIRQRPPRLPRPRPRPMTAPRP | 0.291 |
| RRIRIRPPRLPRPRPRPALYPRP | -0.312 |
| RRIRNRPPRLPRPRPRPRAYPRP | 0.0694 |
| RRIRARPPRLPRPRPRPLGVPRP | 1.44 |
| RRIRTRPPRLPRPRPRPKEYPRP | -1.07 |
| RRIRWRPPRLPRPRPRPSDCPRP | -0.183 |
| RRIRKRPPRLPRPRPRPEFHPRP | 0.131 |
| RRIRYRPPRLPRPRPRPFRTPRP | -0.0801 |
| RRIRNRPPRLPRPRPRPTWDPRP | -0.0897 |
| RRIRTRPPRLPRPRPRPNAGPRP | 0.0361 |
| RRIRQRPPRLPRPRPRPELTPRP | 0.232 |
| RRIRVRPPRLPRPRPRPHSTPRP | -0.418 |
| RRIRCRPPRLPRPRPRPSLRPRP | -0.305 |
| RRIRHRPPRLPRPRPRPAGEPRP | -0.0717 |
| RRIRVRPPRLPRPRPRPSHKPRP | -0.24 |
| RRIRYRPPRLPRPRPRPYAKPRP | -1.76 |
| RRIRLRPPRLPRPRPRPKEQPRP | 0.0445 |
| RRIRHRPPRLPRPRPRPVMGPRP | 0.0268 |

| Sequence | shrunken log2 fold change |
| --- | --- |
| RRIRTRPPRLPRPRPRPKSRPRP | -0.0444 |
| RRIRCRPPRLPRPRPRPLMDPRP | -0.256 |
| RRIRSRPPRLPRPRPRPRCDPRP | 0.144 |
| RRIRFRPPRLPRPRPRPIAEPRP | 0.2 |
| RRIRGRPPRLPRPRPRPCNTPRP | 0.00375 |
| RRIRPRPPRLPRPRPRPSMMPRP | -0.412 |
| RRIRQRPPRLPRPRPRPIAYPRP | -0.133 |
| RRIRMRPPRLPRPRPRPCLDPRP | -0.273 |
| RRIRTRPPRLPRPRPRPGYRPRP | -0.0981 |
| RRIRIRPPRLPRPRPRPGVYPRP | -0.39 |
| RRIRDRPPRLPRPRPRPMQFPRP | -0.0264 |
| RRIRWRPPRLPRPRPRPDNEPRP | 0.403 |
| RRIRNRPPRLPRPRPRPGQSPRP | 0.108 |
| RRIRFRPPRLPRPRPRPANHPRP | -0.264 |
| RRIRHRPPRLPRPRPRPSLAPRP | -0.219 |
| RRIRTRPPRLPRPRPRPEWCPRP | 0.272 |
| RRIRRRPPRLPRPRPRPPGSPRP | 0.413 |
| RRIRMRPPRLPRPRPRPSQTPRP | 0.38 |
| RRIRIRPPRLPRPRPRPAAKPRP | 0.463 |
| RRIRERPPRLPRPRPRPQYLPRP | -0.0574 |
| RRIRCRPPRLPRPRPRPSTLPRP | -0.686 |
| RRIRLRPPRLPRPRPRPTIVPRP | -0.183 |
| RRIRQRPPRLPRPRPRPFSFPRP | -0.272 |
| RRIRNRPPRLPRPRPRPHSQPRP | -0.392 |
| RRIRVRPPRLPRPRPRPNDKPRP | -0.351 |
